The target in assay [1] is T1, FGF14^V160A (aa 64-252) (human) (UniProt Q92915).
T1 sequence: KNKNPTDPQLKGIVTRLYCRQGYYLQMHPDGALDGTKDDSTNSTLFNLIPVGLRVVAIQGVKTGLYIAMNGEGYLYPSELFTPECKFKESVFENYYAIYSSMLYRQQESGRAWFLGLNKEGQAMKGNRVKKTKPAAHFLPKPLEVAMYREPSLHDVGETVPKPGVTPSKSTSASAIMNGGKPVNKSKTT
Nature of the assay: SPR.

Assay [2] concerns the target T2, FGF14^WT (aa 64-252) (human) (UniProt Q92915).
T2 sequence: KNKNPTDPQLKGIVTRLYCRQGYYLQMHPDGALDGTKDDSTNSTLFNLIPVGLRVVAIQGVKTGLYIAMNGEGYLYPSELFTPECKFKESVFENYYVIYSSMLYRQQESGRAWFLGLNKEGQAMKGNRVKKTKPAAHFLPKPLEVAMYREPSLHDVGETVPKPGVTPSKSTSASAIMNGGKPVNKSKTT
Nature of the assay: SPR.

For a further assay, the target named is CLuc-FGF14 (human) (human, UniProt Q92915 1-247). Nature of the assay: split reporter.

*: point of attachment. Cbz = O=C(OCc1ccccc1)*; Boc = CC(C)(C)OC(=O)*

B1: ZL181 (Cbz-FLPK(Boc)-CONH2) (peptide)
peptide: Cbz-FLPK(Boc)-NH2
SMILES: CC(C)C[C@H](NC(=O)[C@H](Cc1ccccc1)NC(=O)OCc1ccccc1)C(=O)N1CCC[C@H]1C(=O)N[C@@H](CCCCNC(=O)OC(C)(C)C)C(N)=O
As for B1, the Kd in assay [1] amounted to 182 µM; in assay [2] it was 89.6 µM. Besides, in the assay with CLuc-FGF14 (human), the concentration for half-maximal inhibition (IC50) came out at 63 µM.

A word on the Kd: it is the equilibrium constant for the complex coming apart. In general, IC50 refers to the concentration at which inhibition is half-maximal. Read a high IC50 as lower potency.
